The test system of data set [1] is HeLa Kyoto. The data set can be described thus: solubility in G1/S (NP-40 vs SDS abundance) (log2 ratio); higher = more soluble. As to conditions: cell cycle stage: G1/S.
Data set [2] has as its system HeLa Kyoto. Put plainly: melting temperature (median over replicates), in situ; higher = more thermally stable.
In data set [3] the test system is HeLa Kyoto. The data set can be described thus: solubility change mitosis vs G1/S (difference of NP-40 vs SDS log2 ratios) (log2 ratio difference); higher = more soluble in mitosis.
Data set [4] deals with HeLa Kyoto. The data set can be described thus: thermal stability score vs G1/S (z-score of summed log2 fold changes over temperatures); higher = more thermally stable than in G1/S.
[5] abbreviates: cell cycle stage: early G1 (4.5 h after nocodazole release).
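Throughout, for melting temperature (median over replicates), in situ: HeLa Kyoto cells synchronized by double thymidine or nocodazole block, proteins quantified by TMT10plex mass spectrometry, three independent biological replicates.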
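Throughout, for solubility change mitosis vs G1/S (difference of NP-40 vs SDS log2 ratios): synchronized HeLa Kyoto cells (double thymidine block for G1/S, nocodazole release for mitosis), protein amounts in NP-40 versus SDS lysates quantified by mass spectrometry, three biological replicates.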
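Throughout, for solubility in G1/S (NP-40 vs SDS abundance): HeLa Kyoto cells arrested at G1/S by double thymidine block, proteins quantified by TMT10plex mass spectrometry in mild NP-40 versus SDS extracts, three biological replicates.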
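Throughout, for thermal stability score vs G1/S (z-score of summed log2 fold changes over temperatures): synchronized HeLa Kyoto cells, proteins quantified by TMT10plex mass spectrometry, three biological replicates, mitosis taken 0.5 h after nocodazole release, G1/S directly after double thymidine block.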

Chain of TXNDC12 (chain, as listed by the source): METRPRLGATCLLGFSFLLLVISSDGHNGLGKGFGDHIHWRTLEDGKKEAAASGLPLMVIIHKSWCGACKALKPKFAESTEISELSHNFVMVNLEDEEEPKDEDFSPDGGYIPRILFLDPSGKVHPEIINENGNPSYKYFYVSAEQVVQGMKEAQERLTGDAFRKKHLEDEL

For “MRVRIGLTLLLCAVLLSLASASSDEEGSQDESLDSKTTLTSDESVKDHTTAGRVVAGQIFLDSEESELESSIQEEEDSLKSQEGESVTEDISFLESPNPENKDYEEPKKVRKPALTAIEGTAHGEPCHFPFLFLDKEYDECTSDGREDGRLWCATTYDYKADEKWGFCETEEEAAKRRQMQEAEMMYQTGMKILNGSNKKSQKREAYRYLQKAASMNHTKALERVSYALLFGDYLPQNIQAAREMFEKLTEEGSPKGQTALGFLYASGLGVNSSQAKALVYYTFGALGGNLIAHMVLGYRYWAGIGVLQSCESALTHYRLVANHVASDISLTGGSVVQRIRLPDEVENPGMNSGMLEEDLIQYYQFLAEKGDVQAQVGLGQLHLHGGRGVEQNHQRAFDYFNLAANAGNSHAMAFLGKMYSEGSDIVPQSNETALHYFKKAADMGNPVGQSGLGMAYLYGRGVQVNYDLALKYFQKAAEQGWVDGQLQLGSMYYNGIGVKRDYKQALKYFNLASQGGHILAFYNLAQMHASGTGVMRSCHTAVELFKNVCERGRWSERLMTAYNSYKDGDYNAAVIQYLLLAEQGYEVAQSNAAFILDQREASIVGENETYPRALLHWNRAASQGYTVARIKLGDYHFYGFGTDVDYETAFIHYRLASEQQHSAQAMFNLGYMHEKGLGIKQDIHLAKRFYDMAAEASPDAQVPVFLALCKLGVVYFLQYIRETNIRDMFTQLDMDQLLGPEWDLYLMTIIALLLGTVIAYRQRQHQDMPAPRPPGPRPAPPQQEGPPEQQPPQ [SEL1L]”, the “solubility in G1/S (log2)” value in data set [1] was found to be 0.228. Moreover, the melting temperature came out at 53.9 °C in data set [2] (cell cycle stage: G1/S) and 52 °C in data set [2] (cell cycle stage: mitosis). For the same substance, the “solubility change mitosis (log2)” value in data set [3] is -0.0462. Also, the values for the thermal stability score in data set [4] (setting [5]) and in data set [4] (cell cycle stage: mitosis) were -0.563 and -0.64, respectively.

Regarding TXNDC12, the “solubility in G1/S (log2)” value in data set [1] turned out to be 0.365. The melting temperature in data set [2] (cell cycle stage: G1/S) was 53.5 °C; in data set [2] (cell cycle stage: mitosis), 54.2 °C. In addition, the “solubility change mitosis (log2)” value in data set [3] was determined as 0.232. Further, the thermal stability score in data set [4] (setting [5]) is -0.513; in data set [4] (cell cycle stage: mitosis), -0.814.

For “MGDVLSTHLDDARRQHIAEKTGKILTEFLQFYEDQYGVALFNSMRHEIEGTGLPQAQLLWRKVPLDERIVFSGNLFQHQEDSKKWRNRFSLVPHNYGLVLYENKAAYERQVPPRAVINSAGYKILTSVDQYLELIGNSLPGTTAKSGSAPILKCPTQFPLILWHPYARHYYFCMMTEAEQDKWQAVLQDCIRHCNNGIPEDSKVEGPAFTDAIRMYRQSKELYGTWEMLCGNEVQILSNLVMEELGPELKAELGPRLKGKPQERQRQWIQISDAVYHMVYEQAKARFEEVLSKVQQVQPAMQAVIRTDMDQIITSKEHLASKIRAFILPKAEVCVRNHVQPYIPSILEALMVPTSQGFTEVRDVFFKEVTDMNLNVINEGGIDKLGEYMEKLSRLAYHPLKMQSCYEKMESLRLDGLQQRFDVSSTSVFKQRAQIHMREQMDNAVYTFETLLHQELGKGPTKEELCKSIQRVLERVLKKYDYDSSSVRKRFFREALLQISIPFLLKKLAPTCKSELPRFQELIFEDFARFILVENTYEEVVLQTVMKDILQAVKEAAVQRKHNLYRDSMVMHNSDPNLHLLAEGAPIDWGEEYSNSGGGGSPSPSTPESATLSEKRRRAKQVVSVVQDEEVGLPFEASPESPPPASPDGVTEIRGLLAQGLRPESPPPAGPLLNGAPAGESPQPKAAPEASSPPASPLQHLLPGKAVDLGPPKPSDQETGEQVSSPSSHPALHTTTEDSAGVQTEF [FAM129B]”, the “solubility in G1/S (log2)” value in data set [1] is 0.283. In addition, the results for the melting temperature in data set [2] (cell cycle stage: G1/S) and in data set [2] (cell cycle stage: mitosis) were 51.6 °C and 51.2 °C, respectively. For the same substance, the “solubility change mitosis (log2)” value in data set [3] is -0.0461. Also, the thermal stability score is -0.711 in data set [4] (setting [5]) and 2.24 in data set [4] (cell cycle stage: mitosis).

Turning to “MEEKLKKTKIIFVVGGPGSGKGTQCEKIVQKYGYTHLSTGDLLRSEVSSGSARGKKLSEIMEKGQLVPLETVLDMLRDAMVAKVNTSKGFLIDGYPREVQQGEEFERRIGQPTLLLYVDAGPETMTQRLLKRGETSGRVDDNEETIKKRLETYYKATEPVIAFYEKRGIVRKVNAEGSVDSVFSQVCTHLDALK [AK1]”, the “solubility in G1/S (log2)” value in data set [1] was found to be 0.524. For the same substance, the values for the melting temperature in data set [2] (cell cycle stage: G1/S) and in data set [2] (cell cycle stage: mitosis) were 50.4 °C and 51 °C, respectively. In addition, the “solubility change mitosis (log2)” value in data set [3] is -0.0547. In addition, the thermal stability score came to 1.73 in data set [4] (setting [5]) and 1.88 in data set [4] (cell cycle stage: mitosis).

Take “MAAQQRDCGGAAQLAGPAAEADPLGRFTCPVCLEVYEKPVQVPCGHVFCSACLQECLKPKKPVCGVCRSALAPGVRAVELERQIESTETSCHGCRKNFFLSKIRSHVATCSKYQNYIMEGVKATIKDASLQPRNVPNRYTFPCPYCPEKNFDQEGLVEHCKLFHSTDTKSVVCPICASMPWGDPNYRSANFREHIQRRHRFSYDTFVDYDVDEEDMMNQVLQRSIIDQ [RNF114]”: in data set [1], the “solubility in G1/S (log2)” value came out at 0.162. The melting temperature in data set [2] (cell cycle stage: G1/S) was 53.2 °C; in data set [2] (cell cycle stage: mitosis) it was 53.8 °C. Further, the “solubility change mitosis (log2)” value in data set [3] was determined as 0.0396. In addition, the figures for the thermal stability score in data set [4] (setting [5]) and in data set [4] (cell cycle stage: mitosis) were -2.47 and -2.4, respectively.
